Results as given in article PMC10165364, “Pathological variants in TOP3A cause distinct disorders of mitochondrial and nuclear genome stability”.

Biological target: T1, TOP3A WT (Homo sapiens, UniProt Q13472 16-934)
T1 sequence: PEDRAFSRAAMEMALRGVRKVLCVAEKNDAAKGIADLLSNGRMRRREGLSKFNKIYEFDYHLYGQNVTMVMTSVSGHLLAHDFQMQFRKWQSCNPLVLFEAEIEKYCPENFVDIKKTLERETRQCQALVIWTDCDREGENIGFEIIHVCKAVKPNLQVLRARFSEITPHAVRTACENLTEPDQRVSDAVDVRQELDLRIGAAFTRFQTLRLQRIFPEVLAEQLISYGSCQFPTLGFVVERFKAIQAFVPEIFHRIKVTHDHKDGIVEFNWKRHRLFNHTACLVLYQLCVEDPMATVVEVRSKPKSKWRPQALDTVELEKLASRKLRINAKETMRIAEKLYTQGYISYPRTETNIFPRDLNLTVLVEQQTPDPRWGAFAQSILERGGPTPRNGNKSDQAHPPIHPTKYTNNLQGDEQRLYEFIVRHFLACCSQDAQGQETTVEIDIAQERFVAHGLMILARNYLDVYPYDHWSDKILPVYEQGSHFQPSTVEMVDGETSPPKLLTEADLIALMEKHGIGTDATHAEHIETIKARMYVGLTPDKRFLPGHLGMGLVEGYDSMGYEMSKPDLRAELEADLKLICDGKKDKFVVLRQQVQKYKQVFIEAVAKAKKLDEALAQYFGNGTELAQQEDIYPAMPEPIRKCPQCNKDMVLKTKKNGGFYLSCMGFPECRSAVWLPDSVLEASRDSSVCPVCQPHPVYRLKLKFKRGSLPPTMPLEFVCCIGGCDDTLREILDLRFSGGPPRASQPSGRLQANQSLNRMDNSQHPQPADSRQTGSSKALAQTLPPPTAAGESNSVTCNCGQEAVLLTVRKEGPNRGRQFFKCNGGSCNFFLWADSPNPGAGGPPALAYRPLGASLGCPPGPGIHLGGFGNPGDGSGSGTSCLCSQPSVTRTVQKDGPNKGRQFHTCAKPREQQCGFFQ
Assay: EMSA; two shifted bands (two TOP3A molecules); 25 mM HEPES pH 7.5, 70 mM NaCl, 100 ug/ml BSA, 1 mM DTT, 10% glycerol; 10 fmol oligo, 0-250 fmol TOP3A in 20 ul; 37 C 15 min, then ice; 8% native PAGE in 0.5x TBE at 4 C
Conditions: protein: recombinant; tags: N-terminal TEV-cleavable 6xHis, cleaved; label: 5' 32P; single strand

B1: EMSA substrate 80-mer (ssDNA)
DNA: ACCACATTAACAACATAAAACCCTCATTCACACGAGAAAACACCCTCATGTTCATACACCTATCCCCCATTCTCCTCCTA
- binding result: binds
